From patent publication US20060058231A1 (Xencor, published 2006)

T1: BMPRII receptor-Fc fusion (UniProt Q13873 27-151, limits assumed)
T1 construct: BMP receptor-Fc fusion used at 5 ug/mL
T1 sequence (looked up): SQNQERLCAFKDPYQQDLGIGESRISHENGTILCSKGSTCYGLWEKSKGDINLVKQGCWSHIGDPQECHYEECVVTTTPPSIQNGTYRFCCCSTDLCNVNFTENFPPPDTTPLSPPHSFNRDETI

T2: BMPRIb receptor-Fc fusion (UniProt O00238 14-126)
T2 construct: BMP receptor-Fc fusion used at 5 ug/mL; also called ALK-6
T2 sequence (looked up): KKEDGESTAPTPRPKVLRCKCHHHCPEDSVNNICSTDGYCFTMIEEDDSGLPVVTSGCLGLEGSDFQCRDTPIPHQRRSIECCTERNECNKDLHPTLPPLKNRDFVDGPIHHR


Assays:
Experiment in all cases: ELISA-like plate assay, captured BMP-7 from conditioned media, receptor-Fc detection
[1] = target: T3, ActRIIa receptor-Fc fusion (UniProt P27037 20-134, limits assumed)
T3 construct: BMP receptor-Fc fusion used at 5 ug/mL
T3 sequence (P27037 20-134 limits assumed): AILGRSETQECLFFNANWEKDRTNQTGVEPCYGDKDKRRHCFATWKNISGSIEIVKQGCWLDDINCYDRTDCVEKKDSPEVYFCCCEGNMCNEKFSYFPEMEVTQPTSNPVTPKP

[2] = target: T1, BMPRII receptor-Fc fusion
[3] = target: T4, BMPRIa receptor-Fc fusion (UniProt P36894 24-152, limits assumed)
T4 construct: also called ALK-3
T4 sequence (P36894 24-152 limits assumed): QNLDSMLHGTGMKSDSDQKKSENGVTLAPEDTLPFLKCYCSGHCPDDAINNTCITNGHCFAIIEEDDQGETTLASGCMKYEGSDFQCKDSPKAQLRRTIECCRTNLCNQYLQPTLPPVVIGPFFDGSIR

[4] = target: T2, BMPRIb receptor-Fc fusion

| ActRIIa binding (relative to wild type = 1.0) [1] | BMPRII binding (relative to wild type = 1.0) [2] | BMPRIa binding (relative to wild type = 1.0) [3] | BMPRIb binding (relative to wild type = 1.0) [4] | Binder |
| --- | --- | --- | --- | --- |
| 0.86 relative to wild type | 1.25 relative to wild type | 0.34 relative to wild type | 0.42 relative to wild type | BMP-7 variant E60H (ligand, In conditioned media; numbering on mature BMP-7) STGGKQRSQNRSKTPKNQEALRMASVAENSSSDQRQACKKHELYVSFRDLGWQDWIIAPHGYAAYYCEGECAFPLNSYMNATNHAIVQTLVHFINPETVPKPCCAPTQLNAISVLYFDDSSNVILKKYRNMVVRACGCH |
| 0.11 relative to wild type |  | 0.1 relative to wild type | 0.24 relative to wild type | BMP-7 variant F93A (ligand, In conditioned media; numbering on mature BMP-7) STGGKQRSQNRSKTPKNQEALRMASVAENSSSDQRQACKKHELYVSFRDLGWQDWIIAPEGYAAYYCEGECAFPLNSYMNATNHAIVQTLVHAINPETVPKPCCAPTQLNAISVLYFDDSSNVILKKYRNMVVRACGCH |
| 0.63 relative to wild type | 0.35 relative to wild type | 0.6 relative to wild type | 0.53 relative to wild type | BMP-7 variant F93G (ligand, In conditioned media; numbering on mature BMP-7) STGGKQRSQNRSKTPKNQEALRMASVAENSSSDQRQACKKHELYVSFRDLGWQDWIIAPEGYAAYYCEGECAFPLNSYMNATNHAIVQTLVHGINPETVPKPCCAPTQLNAISVLYFDDSSNVILKKYRNMVVRACGCH |
| 0.11 relative to wild type |  | 0.15 relative to wild type |  | BMP-7 variant F117S (ligand, In conditioned media; numbering on mature BMP-7) STGGKQRSQNRSKTPKNQEALRMASVAENSSSDQRQACKKHELYVSFRDLGWQDWIIAPEGYAAYYCEGECAFPLNSYMNATNHAIVQTLVHFINPETVPKPCCAPTQLNAISVLYSDDSSNVILKKYRNMVVRACGCH |
| 0.8 relative to wild type | 0.62 relative to wild type | 0.96 relative to wild type | 0.91 relative to wild type | BMP-7 variant F93D (ligand, In conditioned media; numbering on mature BMP-7) STGGKQRSQNRSKTPKNQEALRMASVAENSSSDQRQACKKHELYVSFRDLGWQDWIIAPEGYAAYYCEGECAFPLNSYMNATNHAIVQTLVHDINPETVPKPCCAPTQLNAISVLYFDDSSNVILKKYRNMVVRACGCH |
| 0.34 relative to wild type |  | 0.45 relative to wild type |  | BMP-7 variant R48E (ligand, In conditioned media; numbering on mature BMP-7) STGGKQRSQNRSKTPKNQEALRMASVAENSSSDQRQACKKHELYVSFEDLGWQDWIIAPEGYAAYYCEGECAFPLNSYMNATNHAIVQTLVHFINPETVPKPCCAPTQLNAISVLYFDDSSNVILKKYRNMVVRACGCH |
| 0.47 relative to wild type |  |  |  | BMP-7 variant L90R (ligand, In conditioned media; numbering on mature BMP-7) STGGKQRSQNRSKTPKNQEALRMASVAENSSSDQRQACKKHELYVSFRDLGWQDWIIAPEGYAAYYCEGECAFPLNSYMNATNHAIVQTRVHFINPETVPKPCCAPTQLNAISVLYFDDSSNVILKKYRNMVVRACGCH |
| 0.79 relative to wild type | 0.62 relative to wild type | 0.83 relative to wild type | 0.99 relative to wild type | BMP-7 variant F93E (ligand, In conditioned media; numbering on mature BMP-7) STGGKQRSQNRSKTPKNQEALRMASVAENSSSDQRQACKKHELYVSFRDLGWQDWIIAPEGYAAYYCEGECAFPLNSYMNATNHAIVQTLVHEINPETVPKPCCAPTQLNAISVLYFDDSSNVILKKYRNMVVRACGCH |
| 0.42 relative to wild type |  | 0.29 relative to wild type | 0.3 relative to wild type | BMP-7 variant S77H (ligand, In conditioned media; numbering on mature BMP-7) STGGKQRSQNRSKTPKNQEALRMASVAENSSSDQRQACKKHELYVSFRDLGWQDWIIAPEGYAAYYCEGECAFPLNHYMNATNHAIVQTLVHFINPETVPKPCCAPTQLNAISVLYFDDSSNVILKKYRNMVVRACGCH |
|  |  | 0.1 relative to wild type | 0.23 relative to wild type | BMP-7 variant W55A (ligand, In conditioned media; numbering on mature BMP-7) STGGKQRSQNRSKTPKNQEALRMASVAENSSSDQRQACKKHELYVSFRDLGWQDAIIAPEGYAAYYCEGECAFPLNSYMNATNHAIVQTLVHFINPETVPKPCCAPTQLNAISVLYFDDSSNVILKKYRNMVVRACGCH |
| 0.89 relative to wild type | 0.85 relative to wild type | 0.51 relative to wild type | 0.95 relative to wild type | BMP-7 variant F73N (ligand, In conditioned media; numbering on mature BMP-7) STGGKQRSQNRSKTPKNQEALRMASVAENSSSDQRQACKKHELYVSFRDLGWQDWIIAPEGYAAYYCEGECANPLNSYMNATNHAIVQTLVHFINPETVPKPCCAPTQLNAISVLYFDDSSNVILKKYRNMVVRACGCH |
| 2.5 relative to wild type | 3.05 relative to wild type | 0.33 relative to wild type | 0.64 relative to wild type | BMP-7 variant F73D (ligand, In conditioned media; numbering on mature BMP-7) STGGKQRSQNRSKTPKNQEALRMASVAENSSSDQRQACKKHELYVSFRDLGWQDWIIAPEGYAAYYCEGECADPLNSYMNATNHAIVQTLVHFINPETVPKPCCAPTQLNAISVLYFDDSSNVILKKYRNMVVRACGCH |
| 0.61 relative to wild type | 0.38 relative to wild type | 0.69 relative to wild type | 1.14 relative to wild type | BMP-7 variant F73K (ligand, In conditioned media; numbering on mature BMP-7) STGGKQRSQNRSKTPKNQEALRMASVAENSSSDQRQACKKHELYVSFRDLGWQDWIIAPEGYAAYYCEGECAKPLNSYMNATNHAIVQTLVHFINPETVPKPCCAPTQLNAISVLYFDDSSNVILKKYRNMVVRACGCH |
| 1.87 relative to wild type | 2.85 relative to wild type | 1.05 relative to wild type | 1.71 relative to wild type | BMP-7 variant F73Q (ligand, In conditioned media; numbering on mature BMP-7) STGGKQRSQNRSKTPKNQEALRMASVAENSSSDQRQACKKHELYVSFRDLGWQDWIIAPEGYAAYYCEGECAQPLNSYMNATNHAIVQTLVHFINPETVPKPCCAPTQLNAISVLYFDDSSNVILKKYRNMVVRACGCH |
|  |  |  | 0.17 relative to wild type | BMP-7 variant L115A (ligand, In conditioned media; numbering on mature BMP-7) STGGKQRSQNRSKTPKNQEALRMASVAENSSSDQRQACKKHELYVSFRDLGWQDWIIAPEGYAAYYCEGECAFPLNSYMNATNHAIVQTLVHFINPETVPKPCCAPTQLNAISVAYFDDSSNVILKKYRNMVVRACGCH |
|  |  |  | 0.14 relative to wild type | BMP-7 variant W52P (ligand, In conditioned media; numbering on mature BMP-7) STGGKQRSQNRSKTPKNQEALRMASVAENSSSDQRQACKKHELYVSFRDLGPQDWIIAPEGYAAYYCEGECAFPLNSYMNATNHAIVQTLVHFINPETVPKPCCAPTQLNAISVLYFDDSSNVILKKYRNMVVRACGCH |
| 0.94 relative to wild type | 1.01 relative to wild type | 0.47 relative to wild type | 0.53 relative to wild type | BMP-7 variant E60P (ligand, In conditioned media; numbering on mature BMP-7) STGGKQRSQNRSKTPKNQEALRMASVAENSSSDQRQACKKHELYVSFRDLGWQDWIIAPPGYAAYYCEGECAFPLNSYMNATNHAIVQTLVHFINPETVPKPCCAPTQLNAISVLYFDDSSNVILKKYRNMVVRACGCH |
| 1.87 relative to wild type | 1.77 relative to wild type | 0.55 relative to wild type | 1.23 relative to wild type | BMP-7 variant F73E (ligand, In conditioned media; numbering on mature BMP-7) STGGKQRSQNRSKTPKNQEALRMASVAENSSSDQRQACKKHELYVSFRDLGWQDWIIAPEGYAAYYCEGECAEPLNSYMNATNHAIVQTLVHFINPETVPKPCCAPTQLNAISVLYFDDSSNVILKKYRNMVVRACGCH |
| 0.98 relative to wild type | 1.2 relative to wild type | 1.03 relative to wild type | 1.04 relative to wild type | BMP-7 variant F93H (ligand, In conditioned media; numbering on mature BMP-7) STGGKQRSQNRSKTPKNQEALRMASVAENSSSDQRQACKKHELYVSFRDLGWQDWIIAPEGYAAYYCEGECAFPLNSYMNATNHAIVQTLVHHINPETVPKPCCAPTQLNAISVLYFDDSSNVILKKYRNMVVRACGCH |
| 0.25 relative to wild type |  | 0.12 relative to wild type | 0.16 relative to wild type | BMP-7 variant L21E (ligand, In conditioned media; numbering on mature BMP-7) STGGKQRSQNRSKTPKNQEAERMASVAENSSSDQRQACKKHELYVSFRDLGWQDWIIAPEGYAAYYCEGECAFPLNSYMNATNHAIVQTLVHFINPETVPKPCCAPTQLNAISVLYFDDSSNVILKKYRNMVVRACGCH |
| 2.54 relative to wild type | 2.84 relative to wild type | 0.9 relative to wild type | 0.25 relative to wild type | BMP-7 variant F73S (ligand, In conditioned media; numbering on mature BMP-7) STGGKQRSQNRSKTPKNQEALRMASVAENSSSDQRQACKKHELYVSFRDLGWQDWIIAPEGYAAYYCEGECASPLNSYMNATNHAIVQTLVHFINPETVPKPCCAPTQLNAISVLYFDDSSNVILKKYRNMVVRACGCH |
